According to patent US11466255B2, “Methods and compositions for converting non-endocrine pancreatic tissue into insulin-producing cells” (UNIVERSITY OF MIAMI, priority 2015, dated 2022):

Columns and labels:
[1] = reconstituted solution; cited from earlier work
ALK3- fraction of hNEPT = test: BMP-7 response of ALK3- fraction; format: cell-based, human; conditions: qRT-PCR
Protocol: Magnetic bead-based methods (Miltenyi) were used for the enrichment of ALK3+ cells from hNEPT. Both enriched and negative fractions are subsequently plated and treated with BMP-7 or left untreated (controls).
The identity of sorted cells is confirmed by IF, and aliquots are cultured in adherent conditions. Single sorted pancreatic cells are notoriously difficult to culture in plastic, which is addressed by using a combination of Matrigel®-coated plates and fully defined media [STEMPRO® (Thermofisher Scientific, Grand Island, N.Y.) or Kubota's Medium® (PhoenixSongs Biologicals Branford, Conn.)]^8,29,48,49 Matrigel® is used to grow multipotent pancreatic cells^50,51. Colonies from dissociated ALK3^+ cells sorted from fresh hNEPT are readily grown in these conditions, and resemble those obtained from the MPD without sorting. The typical “ring” morphology described by others^50,51 is observed when plating ALK3^+ cells in 3D conditions or fibroblast feeder cells.

B1: BMP-7: 35 kDa homodimeric protein of the TGF-β superfamily; FDA-approved agent; human mature chain SEQ ID NO:1/2 (protein, listed as Homo sapiens)
chain: IRSTGSKQRSQNRSKTPKNQEALRMANVAENSSSDQRQACKKHELYVSFRDLGWQDWIIAPEGYAAYYCEGECAFPLNSYMNATNHAIVQTLVHFINPETVPKPCCAPTQLNAISVLYFDDSSNVILKKYRNMVVRACGCH
modifications: homodimer; human mature chain of BMP-7 (NCBI Reference Sequence NM_001719.2) comprising peptide from 293-431
time reconstituted BMP-7 is active [1]: 2 to 7 days
response to BMP-7 (ALK3- fraction of hNEPT): did not show any response
